Source: publication PMC4601027 (2015)
Non-standard residues stand in square brackets, D forms with d. No end group written: not given here. pS = N[C@@H](COP(=O)(O)O)C(=O)O

B1: Pin1 WW domain (domain or fragment)
chain: MADEEKLPPGWEKRMSRSSGRVYYFNHITNASQWERPSGNS

Key:
Experiment in all cases: ITC
Pin1 WW domain = biological target: B1
full-length Pin1 = full-length Pin1 (UniProt Q13526 1-163)
CPEB1 pS144 peptide = CPEB1 pS144 peptide (UniProt Q9BZB8, phosphoserine at 144)
CPEB1 pS248 peptide = CPEB1 pS248 peptide (UniProt Q9BZB8, phosphoserine at 248)
CPEB1 pS184 peptide = CPEB1 pS184 peptide (UniProt Q9BZB8, phosphoserine at 184)
CPEB1 pS423 peptide = CPEB1 pS423 peptide (UniProt Q9BZB8, phosphoserine at 423)
CPEB1 pS138 peptide = CPEB1 pS138 peptide (UniProt Q9BZB8, phosphoserine at 138)

full-length Pin1, sequence (Q13526 whole entry): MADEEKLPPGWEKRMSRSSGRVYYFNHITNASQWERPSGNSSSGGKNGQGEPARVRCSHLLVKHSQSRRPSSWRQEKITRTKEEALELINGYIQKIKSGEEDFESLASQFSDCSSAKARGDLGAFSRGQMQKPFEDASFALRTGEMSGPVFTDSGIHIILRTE

Binder | Kd (Pin1 WW domain) | Kd (full-length Pin1) | Kd (CPEB1 pS144 peptide) | Kd (CPEB1 pS248 peptide) | Kd (CPEB1 pS184 peptide) | Kd (CPEB1 pS423 peptide) | Kd (CPEB1 pS138 peptide)
RI[pS]PPLPF-NH2 [CPEB1 pS210 peptide] | 30.3 µM | 32.3 µM | – | – | – | – | –
B1 | – | – | 75.4 µM | 47.6 µM | 28.6 µM | 158 µM | 71.3 µM
